Data published in patent publication US20110318356A1 (Novo Nordisk, published 2011).

Target: T1, recombinant full length human tissue factor pathway inhibitor (TFPI) (human, UniProt P10646 29-304)
T1 construct: also called TFPI1; human TFPI
Assay: SPR (Biacore), recombinant human TFPI

Kd [nM] | Binder
> 0.03 | HzTFPI4F36 LC-K39R, Q42E, Q45K (antibody, human IgG4 S228P, kappa, name in Kabat numbering, V domains shown, Mutated CDR-grafted light chain with wild type CDR-grafted heavy chain; Kabat numbering) VH: EVQLVESGGGLVKPGGSLRLSCAASGFTFSNYAMSWVRQAPGKGLEWVSTISRSGSYSYYADSVKGRFTISRDNAKNSLYLQMNSLRAEDTAVYYCARLGGYDEGDAMDSWGQGTTVTVSS VL: DIVMTQTPLSLSVTPGQPASISCKSSQSLLESDGKTYLNWYLQRPGESPKLLIYLVSILDSGVPDRFSGSGSGTDFTLKISRVEAEDVGVYYCLQATHFPQTFGGGTKVEIKR
0.63 | HzTFPI4F36 LC-FR2 (antibody, human IgG4 S228P, kappa, name in Kabat numbering, Mutated CDR-grafted light chain with wild type CDR-grafted heavy chain; Kabat numbering; also called patch mutant in LC FR2) heavy: not shown light: DIVMTQTPLSLSVTPGQPASISCKSSQSLLESDGKTYLNWLLQRPGESPKLLIYLVSILDSGVPDRFSGSGSGTDFTLKISRVEAEDVGVYYCLQATHFPQTFGGGTKVEIKRTVAAPSVFIFPPSDEQLKSGTASVVCLLNNFYPREAKVQWKVDNALQSGNSQESVTEQDSKDSTYSLSSTLTLSKADYEKHKVYACEVTHQGLSSPVTKSFNRGEC

Target: T1, recombinant full length human tissue …
Assay: SPR (Biacore), recombinant human TFPI over the mAb
Protocol: Binding interaction analysis was obtained by Surface Plasmon Resonance in a Biacore 3000. Capture of the relevant monoclonal antibody at a fixed concentration was obtained with immobilised mouse anti-IgG. Different concentrations of TFPI were tested.
These were followed by a direct binding kinetic procedure on selected mAb constructs, with the monoclonal antibody covalently coupled via free amine groups to the carboxymethylated dextrane membrane (CM5) on the sensor chip surface.

Kd [nM] | kon [M⁻¹ s⁻¹] | Binder
0.0162 | 8.88e+06 | mouse/human chimera version of the anti-TFPI4F36 antibody (ChimTFPI4F36) (antibody, IgG4, V domains shown, also called Chimeric TFPI4F36; chimeric anti-TFPI4F36) VH: EVELVESGGGLVKPGGSLKLSCAASGFTFSNYAMSWVRQTPEKRLEWVATISRSGSYSYFPDSVQGRFTISRDNAKNTLYLQMSSLRSEDTAMYYCTRLGGYDEGDAMDSWGQGTSVTVSS VL: not shown

Target: T1, recombinant full length human tissue …
Assay: SPR (Biacore), recombinant human TFPI
Remark: another data set of the same source

Kd [nM] | Binder
2.2 | HzTFPI4F36 HC-A60P (antibody, human IgG4 S228P, kappa, name in Kabat numbering, V domains shown, Mutated CDR-grafted heavy chain with wild type CDR-grafted light chain; Kabat numbering) VH: EVQLVESGGGLVKPGGSLRLSCAASGFTFSNYAMSWVRQAPGKGLEWVSTISRSGSYSYYPDSVKGRFTISRDNAKNSLYLQMNSLRAEDTAVYYCARLGGYDEGDAMDSWGQGTTVTVSS VL: DIVMTQTPLSLSVTPGQPASISCKSSQSLLESDGKTYLNWYLQKPGQSPQLLIYLVSILDSGVPDRFSGSGSGTDFTLKISRVEAEDVGVYYCLQATHFPQTFGGGTKVEIKR
1.5 | HzTFPI4F36 HC-S77T (antibody, human IgG4 S228P, kappa, name in Kabat numbering, V domains shown, Mutated CDR-grafted heavy chain with wild type CDR-grafted light chain; Kabat numbering) VH: EVQLVESGGGLVKPGGSLRLSCAASGFTFSNYAMSWVRQAPGKGLEWVSTISRSGSYSYYADSVKGRFTISRDNAKNTLYLQMNSLRAEDTAVYYCARLGGYDEGDAMDSWGQGTTVTVSS VL: DIVMTQTPLSLSVTPGQPASISCKSSQSLLESDGKTYLNWYLQKPGQSPQLLIYLVSILDSGVPDRFSGSGSGTDFTLKISRVEAEDVGVYYCLQATHFPQTFGGGTKVEIKR
3 | HzTFPI4F36 HC-S49A (antibody, human IgG4 S228P, kappa, name in Kabat numbering, V domains shown, Mutated CDR-grafted heavy chain with wild type CDR-grafted light chain; Kabat numbering) VH: EVQLVESGGGLVKPGGSLRLSCAASGFTFSNYAMSWVRQAPGKGLEWVATISRSGSYSYYADSVKGRFTISRDNAKNSLYLQMNSLRAEDTAVYYCARLGGYDEGDAMDSWGQGTTVTVSS VL: DIVMTQTPLSLSVTPGQPASISCKSSQSLLESDGKTYLNWYLQKPGQSPQLLIYLVSILDSGVPDRFSGSGSGTDFTLKISRVEAEDVGVYYCLQATHFPQTFGGGTKVEIKR
5.3 | HzTFPI4F36 HC-FR3 (antibody, human IgG4 S228P, kappa, name in Kabat numbering, V domains shown, Mutated CDR-grafted heavy chain with wild type CDR-grafted light chain; Kabat numbering) VH: EVQLVESGGGLVKPGGSLRLSCAASGFTFSNYAMSWVRQAPGKGLEWVSTISRSGSYSYYADSVKGRFTISRDNAKNSLYLQMSSLRSEDTAMYYCARLGGYDEGDAMDSWGQGTTVTVSS VL: DIVMTQTPLSLSVTPGQPASISCKSSQSLLESDGKTYLNWYLQKPGQSPQLLIYLVSILDSGVPDRFSGSGSGTDFTLKISRVEAEDVGVYYCLQATHFPQTFGGGTKVEIKR
0.88 | HzTFPI4F36 HC-FR2 (antibody, human IgG4 S228P, kappa, name in Kabat numbering, V domains shown, Mutated CDR-grafted heavy chain with wild type CDR-grafted light chain; Kabat numbering; also called patch mutant in HC FR2) VH: EVQLVESGGGLVKPGGSLRLSCAASGFTFSNYAMSWVRQTPEKRLEWVSTISRSGSYSYYADSVKGRFTISRDNAKNSLYLQMNSLRAEDTAVYYCARLGGYDEGDAMDSWGQGTTVTVSS VL: DIVMTQTPLSLSVTPGQPASISCKSSQSLLESDGKTYLNWYLQKPGQSPQLLIYLVSILDSGVPDRFSGSGSGTDFTLKISRVEAEDVGVYYCLQATHFPQTFGGGTKVEIKR
> 0.03 | HzTFPI4F36 HC-FR2, CDR2 (antibody, human IgG4 S228P, kappa, name in Kabat numbering, V domains shown, Mutated CDR-grafted heavy chain with wild type CDR-grafted light chain; Kabat numbering) VH: EVQLVESGGGLVKPGGSLRLSCAASGFTFSNYAMSWVRQTPEKRLEWVSTISRSGSYSYFPDSVQGRFTISRDNAKNSLYLQMNSLRAEDTAVYYCARLGGYDEGDAMDSWGQGTTVTVSS VL: DIVMTQTPLSLSVTPGQPASISCKSSQSLLESDGKTYLNWYLQKPGQSPQLLIYLVSILDSGVPDRFSGSGSGTDFTLKISRVEAEDVGVYYCLQATHFPQTFGGGTKVEIKR
2.7 | HzTFPI4F36 HC-A93T (antibody, human IgG4 S228P, kappa, name in Kabat numbering, V domains shown, Mutated CDR-grafted heavy chain with wild type CDR-grafted light chain; Kabat numbering) VH: EVQLVESGGGLVKPGGSLRLSCAASGFTFSNYAMSWVRQAPGKGLEWVSTISRSGSYSYYADSVKGRFTISRDNAKNSLYLQMNSLRAEDTAVYYCTRLGGYDEGDAMDSWGQGTTVTVSS VL: DIVMTQTPLSLSVTPGQPASISCKSSQSLLESDGKTYLNWYLQKPGQSPQLLIYLVSILDSGVPDRFSGSGSGTDFTLKISRVEAEDVGVYYCLQATHFPQTFGGGTKVEIKR
1.3 | HzTFPI4F36 HC-FR2, S49A (antibody, human IgG4 S228P, kappa, name in Kabat numbering, V domains shown, Mutated CDR-grafted heavy chain with wild type CDR-grafted light chain; Kabat numbering) VH: EVQLVESGGGLVKPGGSLRLSCAASGFTFSNYAMSWVRQTPEKRLEWVATISRSGSYSYYADSVKGRFTISRDNAKNSLYLQMNSLRAEDTAVYYCARLGGYDEGDAMDSWGQGTTVTVSS VL: DIVMTQTPLSLSVTPGQPASISCKSSQSLLESDGKTYLNWYLQKPGQSPQLLIYLVSILDSGVPDRFSGSGSGTDFTLKISRVEAEDVGVYYCLQATHFPQTFGGGTKVEIKR
0.9 | HzTFPI4F36 HC-KABAT CDR2 (antibody, human IgG4 S228P, kappa, name in Kabat numbering, V domains shown, Mutated CDR-grafted heavy chain with wild type CDR-grafted light chain; Kabat numbering) VH: EVQLVESGGGLVKPGGSLRLSCAASGFTFSNYAMSWVRQAPGKGLEWVSTISRSGSYSYFPDSVQGRFTISRDNAKNSLYLQMNSLRAEDTAVYYCARLGGYDEGDAMDSWGQGTTVTVSS VL: DIVMTQTPLSLSVTPGQPASISCKSSQSLLESDGKTYLNWYLQKPGQSPQLLIYLVSILDSGVPDRFSGSGSGTDFTLKISRVEAEDVGVYYCLQATHFPQTFGGGTKVEIKR
2.3 | HzTFPI4F36 HC-Y59F, A60P (antibody, human IgG4 S228P, kappa, name in Kabat numbering, V domains shown, Mutated CDR-grafted heavy chain with wild type CDR-grafted light chain; Kabat numbering) VH: EVQLVESGGGLVKPGGSLRLSCAASGFTFSNYAMSWVRQAPGKGLEWVSTISRSGSYSYFPDSVKGRFTISRDNAKNSLYLQMNSLRAEDTAVYYCARLGGYDEGDAMDSWGQGTTVTVSS VL: DIVMTQTPLSLSVTPGQPASISCKSSQSLLESDGKTYLNWYLQKPGQSPQLLIYLVSILDSGVPDRFSGSGSGTDFTLKISRVEAEDVGVYYCLQATHFPQTFGGGTKVEIKR
2.3 | HzTFPI4F36 HC-G44R (antibody, human IgG4 S228P, kappa, name in Kabat numbering, V domains shown, Mutated CDR-grafted heavy chain with wild type CDR-grafted light chain; Kabat numbering) VH: EVQLVESGGGLVKPGGSLRLSCAASGFTFSNYAMSWVRQAPGKRLEWVSTISRSGSYSYYADSVKGRFTISRDNAKNSLYLQMNSLRAEDTAVYYCARLGGYDEGDAMDSWGQGTTVTVSS VL: DIVMTQTPLSLSVTPGQPASISCKSSQSLLESDGKTYLNWYLQKPGQSPQLLIYLVSILDSGVPDRFSGSGSGTDFTLKISRVEAEDVGVYYCLQATHFPQTFGGGTKVEIKR
5.5 | HzTFPI4F36 HC-Y59F (antibody, human IgG4 S228P, kappa, name in Kabat numbering, V domains shown, Mutated CDR-grafted heavy chain with wild type CDR-grafted light chain; Kabat numbering) VH: EVQLVESGGGLVKPGGSLRLSCAASGFTFSNYAMSWVRQAPGKGLEWVSTISRSGSYSYFADSVKGRFTISRDNAKNSLYLQMNSLRAEDTAVYYCARLGGYDEGDAMDSWGQGTTVTVSS VL: DIVMTQTPLSLSVTPGQPASISCKSSQSLLESDGKTYLNWYLQKPGQSPQLLIYLVSILDSGVPDRFSGSGSGTDFTLKISRVEAEDVGVYYCLQATHFPQTFGGGTKVEIKR
0.03 | HzTFPI4F36 HC-G44R, A60P, K64Q (antibody, human IgG4 S228P, kappa, name in Kabat numbering, V domains shown, Mutated CDR-grafted heavy chain with wild type CDR-grafted light chain; Kabat numbering) VH: EVQLVESGGGLVKPGGSLRLSCAASGFTFSNYAMSWVRQAPGKRLEWVSTISRSGSYSYYPDSVQGRFTISRDNAKNSLYLQMNSLRAEDTAVYYCARLGGYDEGDAMDSWGQGTTVTVSS VL: DIVMTQTPLSLSVTPGQPASISCKSSQSLLESDGKTYLNWYLQKPGQSPQLLIYLVSILDSGVPDRFSGSGSGTDFTLKISRVEAEDVGVYYCLQATHFPQTFGGGTKVEIKR
7.7 | HzTFPI4F36 HC-FR3, S77T (antibody, human IgG4 S228P, kappa, name in Kabat numbering, V domains shown, Mutated CDR-grafted heavy chain with wild type CDR-grafted light chain; Kabat numbering) VH: EVQLVESGGGLVKPGGSLRLSCAASGFTFSNYAMSWVRQAPGKGLEWVSTISRSGSYSYYADSVKGRFTISRDNAKNTLYLQMSSLRSEDTAMYYCARLGGYDEGDAMDSWGQGTTVTVSS VL: DIVMTQTPLSLSVTPGQPASISCKSSQSLLESDGKTYLNWYLQKPGQSPQLLIYLVSILDSGVPDRFSGSGSGTDFTLKISRVEAEDVGVYYCLQATHFPQTFGGGTKVEIKR
4.1 | HzTFPI4F36 HC-FR3, A93T (antibody, human IgG4 S228P, kappa, name in Kabat numbering, V domains shown, Mutated CDR-grafted heavy chain with wild type CDR-grafted light chain; Kabat numbering) VH: EVQLVESGGGLVKPGGSLRLSCAASGFTFSNYAMSWVRQAPGKGLEWVSTISRSGSYSYYADSVKGRFTISRDNAKNSLYLQMSSLRSEDTAMYYCTRLGGYDEGDAMDSWGQGTTVTVSS VL: DIVMTQTPLSLSVTPGQPASISCKSSQSLLESDGKTYLNWYLQKPGQSPQLLIYLVSILDSGVPDRFSGSGSGTDFTLKISRVEAEDVGVYYCLQATHFPQTFGGGTKVEIKR
5.8 | HzTFPI4F36 HC-Q3E (antibody, human IgG4 S228P, kappa, name in Kabat numbering, Mutated CDR-grafted heavy chain with wild type CDR-grafted light chain; human kappa/IgG4(S241P)) heavy: not shown light: DIVMTQTPLSLSVTPGQPASISCKSSQSLLESDGKTYLNWYLQKPGQSPQLLIYLVSILDSGVPDRFSGSGSGTDFTLKISRVEAEDVGVYYCLQATHFPQTFGGGTKVEIKRTVAAPSVFIFPPSDEQLKSGTASVVCLLNNFYPREAKVQWKVDNALQSGNSQESVTEQDSKDSTYSLSSTLTLSKADYEKHKVYACEVTHQGLSSPVTKSFNRGEC
2.5 | HzTFPI4F36 HC-K64Q (antibody, human IgG4 S228P, kappa, name in Kabat numbering, V domains shown, Mutated CDR-grafted heavy chain with wild type CDR-grafted light chain; Kabat numbering) VH: EVQLVESGGGLVKPGGSLRLSCAASGFTFSNYAMSWVRQAPGKGLEWVSTISRSGSYSYYADSVQGRFTISRDNAKNSLYLQMNSLRAEDTAVYYCARLGGYDEGDAMDSWGQGTTVTVSS VL: DIVMTQTPLSLSVTPGQPASISCKSSQSLLESDGKTYLNWYLQKPGQSPQLLIYLVSILDSGVPDRFSGSGSGTDFTLKISRVEAEDVGVYYCLQATHFPQTFGGGTKVEIKR
> 0.03 | HzTFPI4F36 HC-G42E, G44R, S49A CDR2 (antibody, human IgG4 S228P, kappa, name in Kabat numbering, V domains shown, Mutated CDR-grafted heavy chain with wild type CDR-grafted light chain; Kabat numbering) VH: EVQLVESGGGLVKPGGSLRLSCAASGFTFSNYAMSWVRQAPEKRLEWVATISRSGSYSYFPDSVQGRFTISRDNAKNSLYLQMNSLRAEDTAVYYCARLGGYDEGDAMDSWGQGTTVTVSS VL: DIVMTQTPLSLSVTPGQPASISCKSSQSLLESDGKTYLNWYLQKPGQSPQLLIYLVSILDSGVPDRFSGSGSGTDFTLKISRVEAEDVGVYYCLQATHFPQTFGGGTKVEIKR
